Data published in paper PMC3501490 (2012).

Target: T1, G6B-b dual phosphopeptide pY211/pY237 (Homo sapiens, UniProt O95866, pY211+pY237)
T1 chain: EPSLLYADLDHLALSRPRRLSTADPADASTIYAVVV
Assay: SPR

Kd: 35.3 nM
B1: SHP-1 tandem SH2 (protein)
chain: WFHRDLSGLDAETLLKGRGVHGSFLARPSRKNQGDFSLSVRVGDQVTHIRIQNSGDFYDLYGGEKFATLTELVEYYTQQQGVLQDRDGTIIHLKYPLNCSDPTSERWYHGHMSGGQAETLLQAKGEPWTFLVRESLSQPGDFVLSVLSDQPKAGPGSPLRVTHIKVMCEGGRYTVGGLETFDSLTDLVEHFKKTGIEEASGAFVYLRQPY
